Reference: PMC5717138

Columns and labels:
[1] = DNA fiber assay, no cisplatin; settings: glycan lost; control: wild type
[2] = DNA fiber assay after cisplatin; settings: glycan lost; control: wild type
[3] = GFP-Polη foci, U2OS, 8 h post-UVC; settings: glycan lost; control: wild type
[4] = GFP-Polη foci, U2OS, 24 h post-UVC; settings: glycan lost; control: wild type
[5] = quantitative MS of di-Gly peptides; settings: glycan lost; control: wild type
[6] = GFP-Polη foci, U2OS, 24 h after cisplatin; settings: glycan lost; control: wild type
[7] = chromatin-fraction IP, anti-ubiquitin/K48 blot; settings: glycan lost; control: wild type
[8] = supF shuttle vector assay, complemented XP30RO; settings: glycan lost; control: wild type
[9] = RPA foci, complemented XP30RO, 4 and 24 h post-UV; settings: glycan lost; control: wild type
[10] = denaturing Flag IP, anti-HA-Ub and anti-K48-Ub blot; settings: glycan lost; control: wild type
[11] = RPA2 foci-positive cells, 24 h recovery after cisplatin; settings: glycan lost; control: wild type
[12] = GFP-Polη foci, U2OS, 34 and 46 h after cisplatin removal; settings: glycan lost; control: wild type
[13] = chromatin fractionation, chromatin-bound Polη 24 h post-UV; settings: glycan lost; control: wild type
[14] = unreplicated CPDs in ssDNA, complemented XP30RO, 4 h post-UV; settings: glycan lost; control: wild type
[15] = in vitro ubiquitination of E. coli-purified His-Polη; settings: control: WT His-Polη without OGT co-expression

B1: DNA polymerase η (Polη): T457A (protein)
parent chain: MATGQDRVVALVDMDCFFVQVEQRQNPHLRNKPCAVVQYKSWKGGGIIAVSYEARAFGVTRSMWADDAKKLCPDLLLAQVRESRGKANLTKYREASVEVMEIMSRFAVIERASIDEAYVDLTSAVQERLQKLQGQPISADLLPSTYIEGLPQGPTTAEETVQKEGMRKQGLFQWLDSLQIDNLTSPDLQLTVGAVIVEEMRAAIERETGFQCSAGISHNKVLAKLACGLNKPNRQTLVSHGSVPQLFSQMPIRKIRSLGGKLGASVIEILGIEYMGELTQFTESQLQSHFGEKNGSWLYAMCRGIEHDPVKPRQLPKTIGCSKNFPGKTALATREQVQWWLLQLAQELEERLTKDRNDNDRVATQLVVSIRVQGDKRLSSLRRCCALTRYDAHKMSHDAFTVIKNCNTSGIQTEWSPPLTMLFLCATKFSASAPSSSTDITSFLSSDPSSLPKVPVTSSEAKTQGSGPAVTATKKATTSLESFFQKAAERQKVKEASLSSLTAPTQAPMSNSPSKPSLPFQTSQSTGTEPFFKQKSLLLKQKQLNNSSVSSPQQNPWSNCKALPNSLPTEYPGCVPVCEGVSKLEESSKATPAEMDLAHNSQSMHASSASKSVLEVTQKATPNPSLLAAEDQVPCEKCGSLVPVWDMPEHMDYHFALELQKSFLQPHSSNPQVVSAVSHQGKRNPKSPLACTNKRPRPEGMQTLESFFKPLTH
other: replication fork progression, other: median fiber length [1]: no change, 12.07 vs 12.17 | other: replication fork progression, other: median fiber length [2]: decreases, 8.62 vs 10.65 | localisation_or_trafficking [3]: no change | localisation_or_trafficking [4]: increases | other: site-specific ubiquitination [5]: decreases | localisation_or_trafficking [6]: no change | other: polyubiquitination [7]: decreases | other: UV-induced mutation frequency [8]: increases | other: CPD lesion bypass [9]: no change | other: polyubiquitination [10]: decreases | other: translesion synthesis after cisplatin, other: % cells with >10 RPA2 foci [11]: increases, 33.4 vs 12.6 | localisation_or_trafficking [12]: increases | localisation_or_trafficking [13]: increases | other: CPD lesion bypass [14]: no change

B2: DNA polymerase η (Polη): 3A (protein)
parent chain: B1 parent chain
other: polyubiquitination [10]: decreases

B3: DNA polymerase η (Polη): 5A (protein)
parent chain: B1 parent chain
other: polyubiquitination [10]: decreases

B4: DNA polymerase η (Polη): GST-OGT co-expression (WT) (protein)
parent chain: B1 parent chain
other: polyubiquitination ([15]; glycan gained): increases

B5: DNA polymerase η (Polη): T457A without OGT (protein)
parent chain: B1 parent chain
other: polyubiquitination ([15]; glycan lost): no change

B6: DNA polymerase η (Polη): T457A with GST-OGT co-expression (protein)
parent chain: B1 parent chain
other: polyubiquitination ([15]; glycan lost): no change

B7: DNA polymerase η (Polη): Polη-3A (protein)
parent chain: B1 parent chain
localisation_or_trafficking [3]: no change | localisation_or_trafficking [4]: increases

B8: DNA polymerase η (Polη): Polη-5A (protein)
parent chain: B1 parent chain
localisation_or_trafficking [3]: no change | localisation_or_trafficking [4]: increases

B9: DNA polymerase η (Polη): T457D (protein)
parent chain: B1 parent chain
localisation_or_trafficking [4]: increases

B10: DNA polymerase η (Polη): T457E (protein)
parent chain: B1 parent chain
localisation_or_trafficking [4]: increases
